Test results as given in the RNAGym collection of RNA variant scans (doi:10.7554/elife.80360).

B1: Hammerhead Ribozyme (parent)
chain: ACCGGAUGUGCUUUCCGGUCUGAUGAGUCCGUGAGGACGAAACAG

Variants of: B1
Test: self-cleavage, relative activity (ratio to wild type); higher = more cleavage; co-transcriptional

Variant | self-cleavage
ACCGGAUGUGCUUUCCGUUCUGAUGUGUCCGUGAGGACGAAACAG | 0.368
ACCGGAUGUGCUUUCCGUUCUGAUGCGUCCGUGAGGACGAAACAG | 0.328
ACCGGAUGUGCUUUCCGUUCUGAUGAGUCCGUGAGGACGAAACAA | 0.379
ACCGGAUGUGCUUUCCGCUCUGAUGAUUCCGUGAGGACGAAACAG | 0.298
ACCGGAUGUGCUUUCCGCUCUGAUGACUCCGUGAGGACGAAACAG | 0.402
ACCGGAUGUGCUUUCCGCUCUGAUGAAUCCGUGAGGACGAAACAG | 0.416
ACCGGAUGUGCUUUCCGCUCUGAGGAGUCCGUGAGGACGAAACAG | 0.365
ACCGGAUGUGCUUUCCGCUCUGACGAGUCCGUGAGGACGAAACAG | 0.477
ACCGGAUGUGCUUUCCGCUCUGAAGAGUCCGUGAGGACGAAACAG | 0.617
ACCGGAUGUGCUUUCCGCUCUGAUGAGUCCUUGAGGACGAAACAG | 0.673
ACCGGAUGUGCUUUCCGCUCUGAUGAGUCCCUGAGGACGAAACAG | 0.548
ACCGGAUGUGCUUUCCGCUCUGAUGAGUCCAUGAGGACGAAACAG | 0.649
ACCGGAUGUGCUUUCCGUUCUGAUGAGUACGUGAGGACGAAACAG | 0.538
ACCGGAUGUGCUUUCCGUUCUGAUGAGUUCGUGAGGACGAAACAG | 0.547
ACCGGAUGUGCUUUCCGUUCUGAUGAGUGCGUGAGGACGAAACAG | 0.575
ACCGGAUGUGCUUUCCGUUCUGAUGAGUCCGUGAGGACCAAACAG | 0.32
ACCGGAUGUGCUUUCCGUUCUGAUGAGUCCGUGAGGACAAAACAG | 0.339
ACCGGAUGUGCUUUCCGUUCUGAUGAGUCCGUGAGGACUAAACAG | 0.392
ACCGGAUGUGCUUUCCGCUCUGAUGAGUCCGUGAGGAAGAAACAG | 0.327

Variant | self-cleavage
ACCGGAUGUGCUUUCCGCUCUGAUGAGUCCGUGAGGAGGAAACAG | 0.387
ACCGGAUGUGCUUUCCGCUCUGAUGAGUCCGUGAGGAUGAAACAG | 0.453
ACCGGAUGUGCUUUCCGUUCUGAUGAGUCCGUGAGGUCGAAACAG | 0.494
ACCGGAUGUGCUUUCCGUUCUGAUGAGUCCGUGAGGGCGAAACAG | 0.629
ACCGGAUGUGCUUUCCGUUCUGAUGAGUCCGUGAGGCCGAAACAG | 0.567
ACCGGAUGUGCUUUCCGCGCUGAUGAGUCCGUGAGGACGAAACAG | 0.224
ACCGGAUGUGCUUUCCGCACUGAUGAGUCCGUGAGGACGAAACAG | 0.349
ACCGGAUGUGCUUUCCGCCCUGAUGAGUCCGUGAGGACGAAACAG | 0.375
ACCGGAUGUGCUUUCCGUUCUGAUGAGUCCGUGAGGACGAAAUAG | 0.402
ACCGGAUGUGCUUUCCGUUCUGAUGAGUCCGUGAGGACGAAAGAG | 0.373
ACCGGAUGUGCUUUCCGUUCUGAUGAGUCCGUGAGGACGAAAAAG | 0.286
ACCGGAUGUGCUUUCCGCUCUGAUGAGCCCGUGAGGACGAAACAG | 0.263
ACCGGAUGUGCUUUCCGCUCUGAUGAGGCCGUGAGGACGAAACAG | 0.44
ACCGGAUGUGCUUUCCGCUCUGAUGAGACCGUGAGGACGAAACAG | 0.415
ACCGGAUGUGCUUUCCGUUCUGCUGAGUCCGUGAGGACGAAACAG | 0.367
ACCGGAUGUGCUUUCCGUUCUGUUGAGUCCGUGAGGACGAAACAG | 0.342
ACCGGAUGUGCUUUCCGUUCUGGUGAGUCCGUGAGGACGAAACAG | 0.288
ACCGGAUGUGCUUUCCGUUGUGAUGAGUCCGUGAGGACGAAACAG | 0.382
ACCGGAUGUGCUUUCCGUUAUGAUGAGUCCGUGAGGACGAAACAG | 0.326

Variant | self-cleavage
ACCGGAUGUGCUUUCCGUUUUGAUGAGUCCGUGAGGACGAAACAG | 0.437
ACCGGAUGUGCUUUCCGCUCUGAUGAGUCCGUGAGGACGAAACAC | 0.383
ACCGGAUGUGCUUUCCGCUCUGAUGAGUCCGUGAGGACGAAACAU | 0.374
ACCGGAUGUGCUUUCCGCUCUGAUGAGUCCGUGAGGACGAAACAA | 0.393
ACCGGAUGUGCUUUCCGUUCUCAUGAGUCCGUGAGGACGAAACAG | 0.372
ACCGGAUGUGCUUUCCGUUCUAAUGAGUCCGUGAGGACGAAACAG | 0.344
ACCGGAUGUGCUUUCCGUUCUUAUGAGUCCGUGAGGACGAAACAG | 0.378
ACCGGAUGUGCUUUCCGUUCUGAUGAGUCCGUGAGGAAGAAACAG | 0.527
ACCGGAUGUGCUUUCCGUUCUGAUGAGUCCGUGAGGAUGAAACAG | 0.661
ACCGGAUGUGCUUUCCGUUCUGAUGAGUCCGUGAGGAGGAAACAG | 0.442
ACCGGAUGUGCUUUCCGCUCUGAUGAGUCCGUGAGGACGAAAAAG | 0.327
ACCGGAUGUGCUUUCCGCUCUGAUGAGUCCGUGAGGACGAAAGAG | 0.358
ACCGGAUGUGCUUUCCGCUCUGAUGAGUCCGUGAGGACGAAAUAG | 0.292
ACCGGAUGUGCUUUCCGUUCUGAUGAGUCCGUGAGCACGAAACAG | 0.308
ACCGGAUGUGCUUUCCGUUCUGAUGAGUCCGUGAGAACGAAACAG | 0.621
ACCGGAUGUGCUUUCCGUUCUGAUGAGUCCGUGAGUACGAAACAG | 0.425
ACCGGAUGUGCUUUCCGUUCUGAUGAGUCCGUGAGGACGACACAG | 0.427
ACCGGAUGUGCUUUCCGUUCUGAUGAGUCCGUGAGGACGAGACAG | 0.375
ACCGGAUGUGCUUUCCGUUCUGAUGAGUCCGUGAGGACGAUACAG | 0.385
